Experimental data published in patent US20150291689A1 (AbbVie / Abbott, published 2015).
Numbering of substitutions follows the chain as printed.

Tests used:
human TNF-α [1] = molecular target: T1, human TNF-α (human, UniProt P01375 77-233); assay: cell-based or functional assay
[2] = molecular target: T2, human IL-17A homodimer (IL-17 A/A) (human, UniProt Q16552 24-155); assay: cell-based or functional assay
T2 sequence: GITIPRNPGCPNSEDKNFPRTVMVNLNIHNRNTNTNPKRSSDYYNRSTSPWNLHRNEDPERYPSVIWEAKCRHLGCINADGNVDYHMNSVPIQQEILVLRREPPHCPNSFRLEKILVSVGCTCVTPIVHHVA

[3] = molecular target: T3, human IL-17A/F heterodimer (human, UniProt Q16552 24-155; Q96PD4 31-163); assay: cell-based or functional assay
T3 sequence 1: T2 sequence
T3 sequence 2: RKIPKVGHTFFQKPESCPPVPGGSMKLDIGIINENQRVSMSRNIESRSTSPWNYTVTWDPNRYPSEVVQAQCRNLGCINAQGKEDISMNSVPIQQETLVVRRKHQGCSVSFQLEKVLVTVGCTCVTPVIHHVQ

mouse IL-17 = molecular target: T4, mouse IL-17 (Mouse, UniProt Q62386 26-158, limits assumed); assay: cell-based or functional assay
T4 sequence (looked up): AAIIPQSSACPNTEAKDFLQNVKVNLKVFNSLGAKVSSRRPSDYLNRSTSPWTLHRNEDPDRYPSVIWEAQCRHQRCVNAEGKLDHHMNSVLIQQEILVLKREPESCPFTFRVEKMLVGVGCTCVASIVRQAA

rat TNF = molecular target: T5, rat TNF (Rat, UniProt P16599 80-235); assay: cell-based or functional assay
T5 sequence (looked up): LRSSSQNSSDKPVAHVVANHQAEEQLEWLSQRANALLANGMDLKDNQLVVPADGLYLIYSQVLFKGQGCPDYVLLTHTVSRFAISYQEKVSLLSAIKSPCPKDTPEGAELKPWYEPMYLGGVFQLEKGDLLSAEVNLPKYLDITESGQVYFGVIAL

rat IL-17 = molecular target: T6, rat IL-17 (Rat, UniProt Q61453 18-150, limits assumed); assay: cell-based or functional assay
T6 sequence (looked up): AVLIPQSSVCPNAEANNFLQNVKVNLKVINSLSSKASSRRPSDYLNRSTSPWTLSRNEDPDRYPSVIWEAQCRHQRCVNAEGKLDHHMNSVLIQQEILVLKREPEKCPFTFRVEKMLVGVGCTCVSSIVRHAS

rabbit TNF = molecular target: T7, rabbit TNF (Rabbit, UniProt P04924 80-235, limits assumed); assay: cell-based or functional assay
T7 sequence (looked up): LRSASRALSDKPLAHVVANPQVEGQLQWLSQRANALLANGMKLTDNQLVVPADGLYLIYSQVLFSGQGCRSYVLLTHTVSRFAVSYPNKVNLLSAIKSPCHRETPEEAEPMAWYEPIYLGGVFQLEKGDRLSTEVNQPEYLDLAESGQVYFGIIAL

rabbit IL-17 [4] = molecular target: T8, rabbit IL-17 (Rabbit, UniProt G1SLF2 24-153); assay: cell-based or functional assay
T8 sequence: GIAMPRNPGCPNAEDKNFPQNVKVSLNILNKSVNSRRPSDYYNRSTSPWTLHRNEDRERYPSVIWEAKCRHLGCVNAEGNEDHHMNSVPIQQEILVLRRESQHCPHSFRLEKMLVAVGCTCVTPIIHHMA

human TNF-α [5] = molecular target: T1, human TNF-α; assay: cell-based or functional assay; remark: listed apart in the source
[6] = molecular target: T2, human IL-17A homodimer (IL-17 A/A); assay: cell-based or functional assay; remark: listed apart in the source
[7] = molecular target: monkey (Rhesus/Cynomolgus) TNF (Monkey (Rhesus/Cynomolgus), UniProt P48094 77-233); assay: cell-based or functional assay
[8] = molecular target: T9, monkey (Rhesus/Cynomolgus) IL-17 (Monkey (Rhesus/Cynomolgus), UniProt F6T3G5 24-155); assay: cell-based or functional assay
T9 sequence: T2 sequence with T3A, N17T, I77V, P104R

mouse TNF = molecular target: T10, mouse TNF (Mouse, UniProt P06804 80-235); assay: cell-based or functional assay
T10 sequence (looked up): T5 sequence (looked up) with A22V, I58V, S91N, I96V, M117I, L130Q, I143F, T144A

rabbit IL-17 [9] = molecular target: T8, rabbit IL-17; assay: Biacore SPR, 3 experiments

T1 sequence (P01375 77-233 limits assumed): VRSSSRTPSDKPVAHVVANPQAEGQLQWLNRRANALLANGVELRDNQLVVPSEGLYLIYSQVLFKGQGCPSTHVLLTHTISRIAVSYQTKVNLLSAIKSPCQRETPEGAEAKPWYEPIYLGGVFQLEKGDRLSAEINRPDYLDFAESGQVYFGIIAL
Chain of monkey (Rhesus/Cynomolgus) TNF (P48094 77-233 limits assumed): as the sequence (P01375 77-233 limits assumed) above, with R44T, T72N, R138L counted along it

B1: ABBV-257 (HMAK199-1-GS10-H10F7-M11 DVD-Ig binding protein) (bispecific antibody)
heavy: EVQLVQSGAEVKKPGASVKVSCKASGYTFANYGIIWVRQAPGQGLEWMGWINTYTGKPTYAQKFQGRVTMTTDTSTSTAYMELSSLRSEDTAVYYCARKLFTTMDVTDNAMDYWGQGTTVTVSSGGGGSGGGGSEVQLVQSGAEVKKPGSSVKVSCKASGYTFTDYEIHWVRQAPGQGLEWMGVNDPESGGTFYNQKFDGRVTLTADESTSTAYMELSSLRSEDTAVYYCTRYSKWDSFDGMDYWGQGTTVTVSSASTKGPSVFPLAPSSKSTSGGTAALGCLVKDYFPEPVTVSWNSGALTSGVHTFPAVLQSSGLYSLSSVVTVPSSSLGTQTYICNVNHKPSNTKVDKKVEPKSCDKTHTCPPCPAPEAAGGPSVFLFPPKPKDQLMISRTPEVTCVVVDVSHEDPEVKFNWYVDGVEVHNAKTKPREEQYNSTYRVVSVLTVLHQDWLNGKEYKCKVSNKALPAPIEKTISKAKGQPREPQVYTLPPSREEMTKNQVSLTCLVKGFYPSDIAVEWESNGQPENNYKTTPPVLDSDGSFFLYSKLTVDKSRWQQGNVFSCSVLHEALHNHYTQKSLSLSPGK
light: DIQMTQSPSSLSASVGDRVTITCRASQDISQYLNWYQQKPGKAPKLLIYYTSRLQSGVPSRFSGSGSGTDFTLTISSLQPEDFATYFCQQGNTWPPTFGQGTKLEIKRGGSGGGGSGDIQMTQSPSSLSASVGDRVTITCRASSGIISYIDWFQQKPGKAPKRLIYATFDLASGVPSRFSGSGSGTDYTLTISSLQPEDFATYYCRQVGSYPETFGQGTKLEIKRTVAAPSVFIFPPSDEQLKSGTASVVCLLNNFYPREAKVQWKVDNALQSGNSQESVTEQDSKDSTYSLSSTLTLSKADYEKHKVYACEVTHQGLSSPVTKSFNRGEC
modifications: N-linked glycans on the heavy chain (position not given)
Mean IC50, TNF-induced lethality of L929 cells (human TNF-α [1]): 0.025 nM
Mean IC50, IL-17 dependent induction of IL-6 in fibroblasts [2]: 0.026 nM
Mean IC50, IL-17 dependent induction of IL-6 in fibroblasts [3]: 0.11 nM
IC50, in vitro neutralization assay (mouse IL-17): 0.239 nM
IC50, in vitro neutralization assay (rat TNF): > 1000 nM
IC50, in vitro neutralization assay (rat IL-17): 0.135 nM
IC50, in vitro neutralization assay (rabbit TNF): > 1000 nM
IC50, in vitro neutralization assay (rabbit IL-17 [4]): 11.4 nM
IC50, in vitro neutralization assay (human TNF-α [5]): 0.025 nM
IC50, in vitro neutralization assay [6]: 0.026 nM
IC50, in vitro neutralization assay [7]: 0.025 nM
IC50, in vitro neutralization assay [8]: 0.032 nM
IC50, in vitro neutralization assay (mouse TNF): > 1000 nM
Kd (rabbit IL-17 [9]): 3.3 nM
